Article PMC4718896 (Biochemistry, 2015)
Where two headings read alike, the source gives them in different places.

How the values were obtained:
PKR (Homo sapiens) = PKR (Homo sapiens) (UniProt P19525); conditions: cited from earlier work
AUC [1] = biological target: the molecule itself; assay: AUC
AUC [2] = biological target: the molecule itself; assay: AUC; remark: listed apart in the source

PKR (from UniProt P19525)
Kd (PKR (Homo sapiens)): 500 µM

B1: PKRΔV (human PKR with the variable region of the interdomain linker deleted) (enzyme, UniProt P19525 1-551, looked up)
chain: MAGDLSAGFFMEELNTYRQKQGVVLKYQELPNSGPPHDRRFTFQVIIDGREFPEGEGRSKKEAKNAAAKLAVEILNKEKKAVSPLLLTTTNSSEGLSMGNYIGLINRIAQKKRLTVNYEQCASGVHGPEGFHYKCKMGQKEYSIGTGSTKQEAKQLAAKLAYLQILMNGLRNNQRKAKRSLAPRFDLPDMKETKYTVDKRFGMDFKEIELIGSGGFGQVFKAKHRIDGKTYVIKRVKYNNEKAEREVKALAKLDHVNIVHYNGCWDGFDYDPETSDDSLESSDYDPENSKNSSRSKTKCLFIQMEFCDKGTLEQWIEKRRGEKLDKVLALELFEQITKGVDYIHSKKLIHRDLKPSNIFLVDTKQVKIGDFGLVTSLKNDGKRTRSKGTLRYMSPEQISSQDYGKEVDLYALGLILAELLHVCDTAFETSKFFTDLRDGIISDIFDKKEKTLLQKLLSKKPEDRPNTSEILRTLTVWKKSPEKNERHTC
Kd (AUC [1]): 1100 µM
stoichiometry N (AUC [1]): 2

B2: PKRΔVB (human PKR with the whole interdomain linker, variable and basic regions, deleted) (enzyme, UniProt P19525 1-551, looked up)
chain: MAGDLSAGFFMEELNTYRQKQGVVLKYQELPNSGPPHDRRFTFQVIIDGREFPEGEGRSKKEAKNAAAKLAVEILNKEKKAVSPLLLTTTNSSEGLSMGNYIGLINRIAQKKRLTVNYEQCASGVHGPEGFHYKCKMGQKEYSIGTGSTKQEAKQLAAKLAYLQILETKYTVDKRFGMDFKEIELIGSGGFGQVFKAKHRIDGKTYVIKRVKYNNEKAEREVKALAKLDHVNIVHYNGCWDGFDYDPETSDDSLESSDYDPENSKNSSRSKTKCLFIQMEFCDKGTLEQWIEKRRGEKLDKVLALELFEQITKGVDYIHSKKLIHRDLKPSNIFLVDTKQVKIGDFGLVTSLKNDGKRTRSKGTLRYMSPEQISSQDYGKEVDLYALGLILAELLHVCDTAFETSKFFTDLRDGIISDIFDKKEKTLLQKLLSKKPEDRPNTSEILRTLTVWKKSPEKNERHTC
Kd (AUC [2]): 1730 µM
stoichiometry N (AUC [2]): 2
